We go through 131 substances from the supplement of paper PMC12042874.

± gives the uncertainty stated by the source.

This data set can be described thus: amyloid nucleation score (Sup35N fusion, yeast selection) (log enrichment); library NNK3; higher = more nucleation; inactive = no reads after selection. The procedure, abridged: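 Peptides of 20 random codons fused to Sup35N were expressed in psi-negative yeast, induced 24 hours with 100 μM copper sulfate, then grown 7 days at 30°C on medium lacking adenine and uracil. Input and output plasmid inserts were Illumina-sequenced. Nucleation score is the DiMSum log enrichment of output over input reads, centred on the mode score of non-aggregating sequences, excluding sequences with under 100 input reads. Random libraries had three technical output replicates.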

EVVLFKYVVL returned an amyloid nucleation score of 0.848 ± 0.19.
The entry for CQHGGCALQHHTYRCEVGAG is “inactive”; for EALTLTARR it is “inactive”.
For the substance RSQEVKTVGSLWQFFVSVLG, the amyloid nucleation score entry is “inactive”.
For LWRDSGTITDGFECFSME, the amyloid nucleation score entry is “inactive”.
Then PWPNVLLCDNDRLSFRYRSF, with 0.972 ± 0.1; and RIVFSKVMLVEIRTSLWFCT, with “inactive”.
The entry for WRVLFSILSVTAVWATYAGL is “inactive”; for VCWSYNSNL it is “inactive”.
FGVCSLFESCIVSFNIVRRL: the amyloid nucleation score entry was “inactive”.
CRKTESAMRWK: the amyloid nucleation score entry is “inactive”.
Then ASDNWESRPSRSSDKSGVIG, with “inactive”.
The entry for GRVFRCTPEVFIK is “inactive”; for HWKLHALGRWAGQGFTR it is “inactive”; for QKQFYGWVAESFARGATIPR it is 0.871 ± 0.21.
Then FNHPNQGVCIHCISGKGWTR, with “inactive”; and FVSPYRNHVGVGSDADWGFR, with “inactive”; and AEWYIRITGDICLDPYLCKN, with “inactive”.
Regarding SPFLKTTVAGLGSPRELSIR, the amyloid nucleation score result was “inactive”.
The figure for SFNSRIIKRDDCFMDLIFWT is 1.07 ± 0.12; for FVYFNT it is “inactive”.
The entry for ERSLFAYMYNNGR is “inactive”; for DISSFGHFSMSFFNRIIKGA it is “inactive”.
Then LMGTSIPSKQADLGTEFSNF, with “inactive”; and CRSLSLTSGIKF, with “inactive”; and IHPVNLRVLSFGHIWCWYLR, with “inactive”.
For VRPELMALTDI, the amyloid nucleation score entry was “inactive”.
As for VDVLER, the amyloid nucleation score entry is “inactive”.
Then VSYNFGYAYECLGYVRFV, with 0.572 ± 0.36; and YRGPVGIDSGVRS, with “inactive”.
The entry for CGEYMRCLNVEYRCVGVKGS is “inactive”.
Then YLLLARIEKRFGFFVISDPG, with “inactive”; and FYSSSL, with “inactive”.
Turning to SVNIMVMTVMNY, the amyloid nucleation score was 1.81 ± 0.058.
The entry for RISVAGLCASEAVAKCLRRG is “inactive”; for IALLHQKHIG it is “inactive”; for NTGCSDNFESFCLKATVHWV it is “inactive”.
Then RSCGVFHQRARVHCCIKSLP, with “inactive”; and FAHEVLYSANT, with “inactive”.
On to DECYNVLRSVVYGMTSSTGW, for which the amyloid nucleation score result was “inactive”.
The entry for SMSSELCLGNRHYG is “inactive”.
Then LFRLFVSEARTRLNCRTCNF, with -0.285 ± 0.64.
Then YTVGCSYMVWVVFNFFYFSE, with 1 ± 0.14; and NVLFRMTRHAYSKLTWLFKR, with “inactive”.
Take SWYYLQFIFMDFMINFCVME: the amyloid nucleation score result was “inactive”.
Regarding RYRIPTSFL, the amyloid nucleation score result is “inactive”.
As for FYYRESRQLRLWVYIGSIVY, the amyloid nucleation score entry is “inactive”.
Then LSTNTERAFTAWNVIGELGD, with “inactive”; and YYLCLYLSPLLL, with 1.28 ± 0.11; and PMAELIWDLVLRLKLSNKKR, with 1.43 ± 0.074.
In turn, GGTLFLYGLIHQHWFLRMHE returned an amyloid nucleation score of 1.05 ± 0.16.
As for CNHVSLTMILVRVLNMFF, the amyloid nucleation score is 0.968 ± 0.23.
Then LIMGTVVLIL, with 1.54 ± 0.073.
Then INFHMS, with “inactive”.
The entry for NGHKEESILCGNGYWKHASE is “inactive”.
Take ELLCSYTYKIGFQWFC: the amyloid nucleation score result is “inactive”.
The substance LIDMFIFNARVSNGDFYCPN had an amyloid nucleation score of 0.718 ± 0.13.
On to YMLSGPRWFV, for which the amyloid nucleation score result was “inactive”.
Then RFQCWVWSQ, with “inactive”; and GTKWSATITGWV, with “inactive”; and CVIPRQIYWWCYRSTGRLIL, with “inactive”.
The entry for LYMDYLQNVNLYGMFI is “inactive”; for DYMRFTYRIMNCLSDCYITN it is “inactive”.
The entry for FWSLNIQGSNYFLHIVNIGR is “inactive”.
In the case of IWLVLESCNVPFL, the amyloid nucleation score result was “inactive”.
Then PFSRYPVGCLGVSPYRVISS, with “inactive”; and DSSLIAGPHVVCSWGLKNFS, with “inactive”; and SFDNSWVVGAIELNDFDSWH, with “inactive”.
Then GYICLGPPAVTVIYVRICRQ, with -0.495 ± 1; and VESCRKDTYNSWFFDCLGDR, with “inactive”.
Then FQKLEVNKLGIIWNHVLTRK, with “inactive”.
Consider KCCTGERYSLIGFLHFCGEM, for which the amyloid nucleation score stood at 0.891 ± 0.15.
Turning to PWSCISLFNFFGITPCWTLS, the amyloid nucleation score came to 0.491 ± 0.67.
The entry for CEYVNKLHTVGVHWGTGSRE is “inactive”; for RFEFMGFSYPCHLTWLLVGY it is “inactive”; for IILFINATGRIRSWCDEYGL it is 0.681 ± 0.27.
The entry for KCMFMEDCPLPEWSDLEVGL is “inactive”.
Then SVFRDSRPLLYDVNMVNGGG, with “inactive”; and LDRCNFISTILPQIRFSV, with “inactive”.
For RDMYLLLREHGKGTIGKPWG, the amyloid nucleation score result was “inactive”.
Regarding RFYGDM, the amyloid nucleation score result is “inactive”.
Then SRNSSIMCFL, with “inactive”; and SCMVNMSPVGWDSAGGEQGV, with “inactive”.
The figure for HHGWVVYNWVDKVINSHIVG is 0.478 ± 0.28.
The entry for LRTTDSGSGIYLTNSVHGFV is “inactive”.
Regarding YDKLSYKLPLF, the amyloid nucleation score result was “inactive”.
RKTSSY returned an amyloid nucleation score of -0.725 ± 0.84.
The entry for CSFTARFLHTMSPKKFKLGN is “inactive”; for GTNFALRHGMIILSRLWAYW it is “inactive”; for GYGSAQCQFRWWYCFE it is -0.317 ± 0.65.
GMSICVPSKS came in with an amyloid nucleation score of 0.179 ± 0.34.
Then LTSESSDEICGGRATSVLCL, with “inactive”; and KYPSYLNLSCVAVKYVWCSE, with 1.94 ± 0.071; and SPFPLEPFS, with “inactive”.
The entry for LFIRP is “inactive”.
As for RSDENWRMTYWRAGCRVLDV, the amyloid nucleation score entry was “inactive”.
The entry for AAIYYLSRAECNFSRYKNYL is “inactive”.
Then VLTRTTRLTHSTTSICLLVL, with “inactive”; and WFFMNVLASENKYFVLCCKA, with “inactive”; and WSYREVHRRDLGLLSNGTCW, with “inactive”.
The entry for CLKFQSVY is “inactive”; for GLKFMRNVSTFRYLRRKTDY it is “inactive”.
On to AELVNIF, for which the amyloid nucleation score result is “inactive”.
The entry for PYYNRGFCGYGFSQVMEVL is “inactive”; for SFLWKIMISCYMMIVFCCVS it is “inactive”.
Then LVVRLIDF, with “inactive”.
Then CRMAKRLAVRTSLRRMFSES, with “inactive”; and FTRYRNVFKWTMWFSYFWQA, with “inactive”.
With ARNFLVRIWHCDRFSDCGII, the amyloid nucleation score result is “inactive”.
The entry for NIWRMYEIRSVSGKKLRVDI is “inactive”; for YSVSEIRKSHLWITINMAVF it is “inactive”.
The entry for YFSISLLTSK is “inactive”; for SEFGPIEATSAHMFESPFKG it is “inactive”.
The entry for FDMTL is “inactive”; for FFFVDMYWSDCLKDLLL it is “inactive”.
The substance INDLKGVVLNIWIKYIV yielded an amyloid nucleation score of 0.602 ± 0.14.
Then GGAKVLTV, with “inactive”; and EFKQSSWY, with “inactive”.
The entry for FSTQRLNG is “inactive”; for LGAKILCNWRVVHDSSCQHL it is “inactive”; for YTDWGYDLRNGAGNGYIT it is “inactive”.
The entry for SGVMNWKT is “inactive”; for LVKLCIFGLRDGYTVFEYMG it is “inactive”.
Turning to HNASKRMDICKASSVYKWRI, the amyloid nucleation score result is “inactive”.
As for IRGDGCTGARSPTTSRAAGN, the amyloid nucleation score entry was “inactive”.
As to SKAMLTVA, the amyloid nucleation score entry is “inactive”.
Then HRKKYFLSPIVGPRTPRLCT, with “inactive”.
Then RFIGGTYH, with “inactive”; and DVLRVFLFSSFIILCVGCTY, with “inactive”.
The entry for DLYIYCFWLDMVITVCKRQK is “inactive”; for CISTVIEKMLVIYEKNRFQH it is 0.529 ± 0.46.
